From the supplement of paper PMC7877785
± gives the uncertainty stated by the source.

Experiment: self-splicing fitness, log relative to wild type (ln ratio); higher = more splicing; Tetrahymena group I intron in knt gene, E. coli kanamycin selection, DiMSum; sequences stand for … in CUCUCU…GGAGGGAAAAGUUAUCAGGCAUGCACCUGGUAGCUAGUCUUUAAACCAAUAGAUUGCAUCGGUUUAAAAGGCAAGACCGUCAAAUUGCGGGAAAGGGGUCAACAGCCGUUCAGUACCAAGUCUCAGGGGAAACUUUGAGAUGGCCUUGCAAAGGGUAUGGUAAUAAGCUGACGGACAUGGUCCUAACCACGCAGCCAAGUCCUAAGUCAACAGAUCUUCUGUUGAUAUGGAUGCAGUUCACAGACUAAAUGUCGGUCGGGGAAGAUGUAUUCUUCUCAUAAGAUAUAGUCGGACCUCUCCUUAAUGGGAGCUAGCGGAUGAAGUGAUGCAACACUGGAGCCGCUGGGAACUAAUUUGUAUGCGAAAGUAUAUUGAUUAGUUUUGGAGUACUCGUGGUCG
Procedure, shortened: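 Library with all eight P1ex-region intron nucleotides randomised, intron inside the knt kanamycin-resistance gene on pET-22b(+), in E. coli BL21(DE3). Cells grew overnight at 37°C or 30°C on LB agar with or without 25 μg/mL kanamycin (plus 100 μg/mL carbenicillin, 50 μM IPTG, 0.2% rhamnose), in six replicate transformations. Pooled colonies were amplicon-sequenced on Illumina HiSeq 2500. DiMSum fitness is the error-weighted combination of wild-type-normalised replicate fold changes, kanamycin versus none.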

Sequence	self-splicing fitness (ln) (30 °C)	self-splicing fitness (ln) (37 °C)
UCCCAGCAAUAUUACGGGAG	-3.44 ± 0.14	-2.01 ± 0.11
UCCCAGCAAUAUUACGGGCA	-0.512 ± 0.082	-0.2 ± 0.097
UCCCAGCAAUAUUACGGUCA	-0.0309 ± 0.062	0.226 ± 0.072
UCCCAGCAAUAUUACGUAUC	-3.32 ± 0.29	-1.35 ± 0.2
UCCCAGCAAUAUUACGUCUA	-2.5 ± 0.21	-2.12 ± 0.22
UCCCAGCAAUAUUACGUUCC	-2.26 ± 0.21	-2.44 ± 0.27
UCCGAGCAAUAUUACGAGAA	-1.91 ± 0.35	-2.27 ± 0.38
UCCGAGCAAUAUUACGAGAU	-3.41 ± 0.24	-2.02 ± 0.29
UCCGAGCAAUAUUACGAUUA	-1.94 ± 0.28	-1.72 ± 0.26
UCCGAGCAAUAUUACGCACA	-3.21 ± 0.22	-0.221 ± 0.13
UCCGAGCAAUAUUACGCAUG	-2.8 ± 0.32	-2.36 ± 0.3
UCCGAGCAAUAUUACGCCCA	-4.21 ± 0.36	-2.83 ± 0.35
UCCGAGCAAUAUUACGCCUC	–	-1.34 ± 0.33
UCCGAGCAAUAUUACGCGAC	-2.63 ± 0.41	-1.58 ± 0.4
UCCGAGCAAUAUUACGCGGU	-3.33 ± 0.26	-1.58 ± 0.17
UCCGAGCAAUAUUACGGAAC	-2.97 ± 0.33	–
UCCGAGCAAUAUUACGGAUG	-4.09 ± 0.35	-1.77 ± 0.2
UCCGAGCAAUAUUACGGCAA	-1.43 ± 0.11	-0.233 ± 0.13
UCCGAGCAAUAUUACGGCGA	-0.0162 ± 0.1	-0.0341 ± 0.12
UCCGAGCAAUAUUACGGGAG	-3.81 ± 0.22	-2.79 ± 0.19
UCCGAGCAAUAUUACGGGGA	-1.93 ± 0.15	-0.603 ± 0.11
UCCGAGCAAUAUUACGGUAA	-2.21 ± 0.18	-1.08 ± 0.12
UCCGAGCAAUAUUACGGUCC	-3.08 ± 0.24	-3.35 ± 0.33
UCCGAGCAAUAUUACGUGCG	-3.49 ± 0.43	-2.63 ± 0.34
UCCGAGCAAUAUUACGUUGG	-3.33 ± 0.21	-1.78 ± 0.24
UCCUAGCAAUAUUACGAAUG	–	-2.76 ± 0.44

Sequence	self-splicing fitness (ln) (30 °C)	self-splicing fitness (ln) (37 °C)
UCCUAGCAAUAUUACGAGAG	-3.57 ± 0.17	-2.51 ± 0.2
UCCUAGCAAUAUUACGAGUU	-3.71 ± 0.3	-1.24 ± 0.18
UCCUAGCAAUAUUACGCAAC	-2.76 ± 0.21	-3.38 ± 0.42
UCCUAGCAAUAUUACGCAAU	-2.64 ± 0.21	-2.05 ± 0.25
UCCUAGCAAUAUUACGCCAC	-1.72 ± 0.28	-1.15 ± 0.27
UCCUAGCAAUAUUACGCCUA	-2.01 ± 0.41	–
UCCUAGCAAUAUUACGCGGA	-3.3 ± 0.26	-2.51 ± 0.25
UCCUAGCAAUAUUACGCGUU	-2.01 ± 0.095	-0.94 ± 0.1
UCCUAGCAAUAUUACGCUAC	-2.35 ± 0.15	-0.883 ± 0.3
UCCUAGCAAUAUUACGCUCA	–	-2.48 ± 0.42
UCCUAGCAAUAUUACGCUUC	-3.48 ± 0.18	-3.1 ± 0.23
UCCUAGCAAUAUUACGGAGC	-3.26 ± 0.29	-1.98 ± 0.18
UCCUAGCAAUAUUACGGCGC	-2.21 ± 0.24	-1.69 ± 0.23
UCCUAGCAAUAUUACGGGAU	-4.1 ± 0.22	-2.18 ± 0.17
UCCUAGCAAUAUUACGUAAA	-1.84 ± 0.19	0.0696 ± 0.22
UCCUAGCAAUAUUACGUAAG	-3.31 ± 0.24	-2.4 ± 0.23
UCCUAGCAAUAUUACGUACC	-2.36 ± 0.47	–
UCCUAGCAAUAUUACGUCUU	-4.03 ± 0.23	-2.05 ± 0.14
UCCUAGCAAUAUUACGUGAC	-3.85 ± 0.2	-3.03 ± 0.21
UCCUAGCAAUAUUACGUUAC	-3.48 ± 0.25	-2.09 ± 0.25
UCCUAGCAAUAUUACGUUUC	-2.36 ± 0.4	-3.04 ± 0.43
UCGAAGCAAUAUUACGACAG	-3.08 ± 0.23	-1.87 ± 0.31
UCGAAGCAAUAUUACGACCA	-1.16 ± 0.15	-1.09 ± 0.18
UCGAAGCAAUAUUACGAGGG	-2.48 ± 0.15	-1.62 ± 0.2
UCGAAGCAAUAUUACGAGGU	-3.45 ± 0.4	-2.03 ± 0.29
UCGAAGCAAUAUUACGAGUU	-3.31 ± 0.15	-2.04 ± 0.21

Sequence	self-splicing fitness (ln) (30 °C)	self-splicing fitness (ln) (37 °C)
UCGAAGCAAUAUUACGCAUU	-1.97 ± 0.19	-2.46 ± 0.26
UCGAAGCAAUAUUACGCGAC	-3.47 ± 0.25	-2.2 ± 0.26
UCGAAGCAAUAUUACGCGCU	-2.18 ± 0.2	-0.209 ± 0.24
UCGAAGCAAUAUUACGCGGA	-3.61 ± 0.39	-1.35 ± 0.17
UCGAAGCAAUAUUACGCUAU	-3.24 ± 0.19	-3.36 ± 0.42
UCGAAGCAAUAUUACGCUGA	-3.44 ± 0.33	-2.31 ± 0.29
UCGAAGCAAUAUUACGGAAC	-3.33 ± 0.38	-0.421 ± 0.39
UCGAAGCAAUAUUACGGAGU	-3.99 ± 0.28	-1.03 ± 0.15
UCGAAGCAAUAUUACGGCGC	-3.11 ± 0.34	-2.04 ± 0.32
UCGAAGCAAUAUUACGGGUC	-4.14 ± 0.33	-2.54 ± 0.44
UCGAAGCAAUAUUACGGUAA	-2.11 ± 0.16	-0.334 ± 0.13
UCGAAGCAAUAUUACGGUCC	-4.15 ± 0.42	-1.95 ± 0.31
UCGAAGCAAUAUUACGUAGU	-2.53 ± 0.11	-0.666 ± 0.11
UCGAAGCAAUAUUACGUCCG	-0.163 ± 0.1	-0.412 ± 0.12
UCGAAGCAAUAUUACGUCGC	-1.76 ± 0.14	-1.86 ± 0.19
UCGAAGCAAUAUUACGUUCC	-2.35 ± 0.33	-0.433 ± 0.41
UCGAAGCAAUAUUACGUUGC	-3.36 ± 0.26	–
UCGCAGCAAUAUUACGAAGG	-1.85 ± 0.096	-0.846 ± 0.12
UCGCAGCAAUAUUACGAAUC	-4.04 ± 0.2	-2.61 ± 0.2
UCGCAGCAAUAUUACGACAG	-2.6 ± 0.25	-0.246 ± 0.35
UCGCAGCAAUAUUACGCAGC	–	-2.1 ± 0.45
UCGCAGCAAUAUUACGCAGG	-3.59 ± 0.2	-2.2 ± 0.19
UCGCAGCAAUAUUACGCAUU	-2.57 ± 0.18	-2.43 ± 0.21
UCGCAGCAAUAUUACGCCAA	-1.37 ± 0.16	-1.23 ± 0.22
UCGCAGCAAUAUUACGGCUC	-3.21 ± 0.17	-2.96 ± 0.35
